Numbered stars: 1 amine (or outer) side, 2 acyl side, 3 side chain; on linkers, the order of the positions; unused ones are H or OH. Bridge positions count the residues as written; N and C are the ends. Side chains are listed from the residue outwards. Ends that are not written are not given here. * marks the point of attachment. C20 diacid = O=C(O)CCCCCCCCCCCCCCCCCCC(=O)*; γGlu = O=C(O)[C@H](CCC(=O)[*:2])N[*:1]; AEEA = NCCOCCOCC(=O)O
T1: rat calcitonin receptor (rat, UniProt P32214 25-516)
T1 construct: whole, on cells; membranes of transiently transfected BHK tk'ts 13 cells (Assay VIII); also called rCTR; rat calcitonin (a) receptor
T1 sequence (looked up): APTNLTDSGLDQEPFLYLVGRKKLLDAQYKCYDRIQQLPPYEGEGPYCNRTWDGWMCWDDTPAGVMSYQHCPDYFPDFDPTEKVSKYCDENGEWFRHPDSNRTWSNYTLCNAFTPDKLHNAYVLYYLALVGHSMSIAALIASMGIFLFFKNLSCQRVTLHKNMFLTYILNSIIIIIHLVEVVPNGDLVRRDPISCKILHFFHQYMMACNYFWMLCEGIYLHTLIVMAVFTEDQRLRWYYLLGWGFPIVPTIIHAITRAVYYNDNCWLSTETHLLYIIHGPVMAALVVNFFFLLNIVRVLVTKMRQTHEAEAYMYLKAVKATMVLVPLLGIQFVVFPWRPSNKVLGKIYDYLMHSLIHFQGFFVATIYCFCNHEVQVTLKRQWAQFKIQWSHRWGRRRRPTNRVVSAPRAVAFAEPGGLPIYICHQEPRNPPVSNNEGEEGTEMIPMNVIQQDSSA

T2: rat amylin receptor (rat calcitonin receptor + rat RAMP 3) (rat, UniProt P32214 25-516; Q9JJ73 23-147)
T2 construct: whole, on cells; membranes of transiently transfected BHK tk'ts 13 cells (Assay VI); also called rAmylin-R; rat amylin 3(a) receptor
T2 sequence (looked up) 1: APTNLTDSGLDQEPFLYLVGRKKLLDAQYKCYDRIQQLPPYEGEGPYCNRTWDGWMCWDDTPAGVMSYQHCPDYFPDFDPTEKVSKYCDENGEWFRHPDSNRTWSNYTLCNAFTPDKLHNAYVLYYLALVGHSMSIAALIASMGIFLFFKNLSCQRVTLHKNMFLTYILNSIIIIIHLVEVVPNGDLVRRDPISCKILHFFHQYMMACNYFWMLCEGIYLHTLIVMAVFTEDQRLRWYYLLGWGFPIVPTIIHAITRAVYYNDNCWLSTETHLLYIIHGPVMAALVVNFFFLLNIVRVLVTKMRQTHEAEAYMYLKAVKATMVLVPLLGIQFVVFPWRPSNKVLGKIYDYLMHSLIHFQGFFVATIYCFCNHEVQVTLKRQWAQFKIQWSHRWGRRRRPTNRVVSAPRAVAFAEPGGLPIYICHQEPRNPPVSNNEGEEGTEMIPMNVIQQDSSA
T2 sequence (looked up) 2: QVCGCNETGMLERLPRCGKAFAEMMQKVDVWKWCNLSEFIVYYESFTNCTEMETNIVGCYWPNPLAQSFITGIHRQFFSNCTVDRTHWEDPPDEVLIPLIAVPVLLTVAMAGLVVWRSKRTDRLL

T3: human calcitonin receptor (human, UniProt P30988 25-474)
T3 construct: whole, on cells; membranes of stably transfected BHK cells (Assay VII); also called hCTR; hCT
T3 sequence (looked up): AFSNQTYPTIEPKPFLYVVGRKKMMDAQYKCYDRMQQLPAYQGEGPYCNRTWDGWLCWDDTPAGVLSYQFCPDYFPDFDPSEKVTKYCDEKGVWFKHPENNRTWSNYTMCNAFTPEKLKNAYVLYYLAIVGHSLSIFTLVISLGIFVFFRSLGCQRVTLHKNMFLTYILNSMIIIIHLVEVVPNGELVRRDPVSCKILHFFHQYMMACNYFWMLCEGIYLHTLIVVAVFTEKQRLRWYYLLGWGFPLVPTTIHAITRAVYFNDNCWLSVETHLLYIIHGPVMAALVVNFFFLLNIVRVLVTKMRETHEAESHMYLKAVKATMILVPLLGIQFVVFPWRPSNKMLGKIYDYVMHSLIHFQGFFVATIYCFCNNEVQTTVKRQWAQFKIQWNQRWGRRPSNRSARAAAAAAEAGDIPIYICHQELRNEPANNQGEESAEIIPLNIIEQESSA

B1: N^α1-[(4S)-4-carboxy-4-(19-carboxynonadecanoylamino)butanoyl]-[Glu14,Arg17,Pro21,Pro27,Pro31]-h-amylin (peptide)
peptide: {C20 diacid-γGlu}-KCNTATCATQRLAEFLRHSSPNFGAIPSSTPVGSNTY-NH2
modifications: disulfide 2-7 (inferred)
notes: analogue of human amylin; also called compound 31
B2: N^α1-[(4S)-4-carboxy-4-(19-carboxynonadecanoylamino)butanoyl]-[Glu14,Arg17,Pro21,Pro27,His34]-h-amylin (peptide)
peptide: {C20 diacid-γGlu}-KCNTATCATQRLAEFLRHSSPNFGAIPSSTNVGHNTY-NH2
modifications: disulfide 2-7 (inferred)
notes: analogue of human amylin; also called compound 17
B3: N^ε1-[2-[2-[2-[[(4S)-4-carboxy-4-(19-carboxynonadecanoylamino)butanoyl]amino]ethoxy]ethoxy]acetyl]-[Arg17,Pro21,Pro27,Glu35]-h-amylin (peptide)
peptide: K([AEEA-γGlu-C20 diacid])CNTATCATQRLANFLRHSSPNFGAIPSSTNVGSETY-NH2
modifications: disulfide 2-7 (inferred)
notes: analogue of human amylin; also called compound 26
B4: N^ε1-[2-[2-[2-[[(4S)-4-carboxy-4-(19-carboxynonadecanoylamino)butanoyl]amino]ethoxy]ethoxy]acetyl]-[Arg17,Pro21,Pro27,Pro34]-h-amylin (peptide)
peptide: K([AEEA-γGlu-C20 diacid])CNTATCATQRLANFLRHSSPNFGAIPSSTNVGPNTY-NH2
modifications: disulfide 2-7 (inferred)
notes: analogue of human amylin; also called compound 50
B5: N^α1-[(4S)-4-carboxy-4-(19-carboxynonadecanoylamino)butanoyl]-[Glu14,Arg17,Pro21,Pro26]-h-amylin (peptide)
peptide: {C20 diacid-γGlu}-KCNTATCATQRLAEFLRHSSPNFGAPLSSTNVGSNTY-NH2
modifications: disulfide 2-7 (inferred)
notes: analogue of human amylin; also called compound 7
B6: N^α1-[(4S)-4-carboxy-4-(19-carboxynonadecanoylamino)butanoyl]-[Arg17,Pro21,Pro27,Glu35]-h-amylin (peptide)
peptide: KCNTATCATQRLANFLRHSSPNFGAIPSSTNVGSETY
modifications: C20 diacid-gGlu on the alpha amino group of the N-terminal residue (Lys 1); disulfide bridge between the two Cys residues; C-terminal amide
notes: analogue of human amylin; also called compound 23
B7: N^α1-[(4S)-4-carboxy-4-(19-carboxynonadecanoylamino)butanoyl]-[Glu14,Arg17,Pro21,Pro27,Arg35]-h-amylin (peptide)
peptide: {C20 diacid-γGlu}-KCNTATCATQRLAEFLRHSSPNFGAIPSSTNVGSRTY-NH2
modifications: disulfide 2-7 (inferred)
notes: analogue of human amylin; also called compound 16
B8: N^ε1-[2-[2-[2-[[(4S)-4-carboxy-4-(19-carboxynonadecanoylamino)butanoyl]amino]ethoxy]ethoxy]acetyl]-[Arg17,Pro21,Pro27,Pro31]-h-amylin (peptide)
peptide: K([AEEA-γGlu-C20 diacid])CNTATCATQRLANFLRHSSPNFGAIPSSTPVGSNTY-NH2
modifications: disulfide 2-7 (inferred)
notes: analogue of human amylin; also called compound 49
B9: N^α1-[(4S)-4-carboxy-4-(19-carboxynonadecanoylamino)butanoyl]-[Arg17,Pro21,Pro27,His34]-h-amylin (peptide)
peptide: KCNTATCATQRLANFLRHSSPNFGAIPSSTNVGHNTY
modifications: C20 diacid-gGlu on the alpha amino group of the N-terminal residue (Lys 1); disulfide bridge between the two Cys residues; C-terminal amide
notes: analogue of human amylin; also called compound 40
B10: N^α1-[2-[2-[2-[[2-[2-[2-[[(4S)-4-carboxy-4-(19-carboxynonadecanoylamino)butanoyl]amino]ethoxy]ethoxy]acetyl]amino]ethoxy]ethoxy]acetyl]-[Glu14,Arg17,Pro21,Pro27 … (peptide)
peptide: KCNTATCATQRLAEFLRHSSPNFGAIPSSTNVGSNTY
modifications: C20 diacid-gGlu-2xOEG on the alpha amino group of the N-terminal residue (Lys 1); disulfide bridge between the two Cys residues; C-terminal amide
notes: analogue of human amylin; also called compound 19

Legend:
[1] = target: T1, rat calcitonin receptor; assay: IC50 on rat calcitonin receptor divided by IC50 on rat amylin receptor (SPA competition)
[2] = target: T1, rat calcitonin receptor; assay: SPA competition with 125I-calcitonin, membranes of BHK cells with rat calcitonin receptor (Assay VIII)
[3] = target: T2, rat amylin receptor (rat calcitonin …); assay: SPA competition with 125I-rat amylin, membranes of BHK cells with rat calcitonin receptor + rat RAMP3 (Assay VI)
[4] = target: T3, human calcitonin receptor; assay: IC50 on human calcitonin receptor divided by IC50 on human amylin receptor (SPA competition)
Procedure: The resulting pellet was resuspended, homogenized and centrifuged (20.000 rpm, 15 min) in a buffer containing 20 mM Na-HEPES and 0.1 mM EDTA (pH 7.4, buffer 2). The resulting pellet was resuspended in buffer 2 and protein concentration was measured (BCA protein Assay, Pierce). The homogenate was kept cold during the whole procedure. The membranes were kept at −80° C. until use. The assay was performed in a 384 well Optiplate (PerkinElmer) in a total volume of 40 ul. Membranes were mixed with SPA beads. Final concentration of membranes 35 ng/μL final and SPA beads was 0.05 mg/well. Test-compounds were dissolved in DMSO and further diluted in assay buffer (50 mM Hepes, pH 7.4, 1 mM CaCl2, 5 mM MgCl₂, 0.1% OA and 0.02% Tween20). […] The final mixture was incubated with shaking at 400 rpm for 120 min at 25° C. prior to centrifugation (1500 rpm, 10 min). Samples were analyzed on TopCounter™ (Packard). The IC₅₀ was calculated using (one site binding competition analysis) GraphPad Prism5 as a measure of receptor affinity.
Membranes were prepared in the following way; the cells were rinsed with PBS and incubated with Versene for approximately 5 min before harvesting. The cells were flushed with PBS and the cell-suspension was centrifuged for 5 min at 1000 rpm. Cells were homogenized (Ultrathurrax) in a buffer containing 20 mM Na-HEPES and 10 mM EDTA (pH 7.4) and centrifuged at 20.000 rpm for 15 min. The resulting pellet was resuspended, homogenized and centrifuged (20.000 rpm, 15 min) in a buffer containing 20 mM Na-HEPES and 0.1 mM EDTA (pH 7.4, buffer 2). The resulting pellet was resuspended in buffer 2 and protein concentration was measured (BCA protein Assay, Pierce). The homogenate was kept cold during the whole procedure. The membranes were kept at −80° C. until use. Assay was performed in a 384 well Optiplate (PerkinElmer) in a total volume of 40 ul. Membranes were mixed with SPA beads.

Row | Ratio rCT/rAmylin binding [1] | IC50 [2] [nM] | IC50 [3] [nM] | Ratio hCT/hAmylin binding [4] | Binder
1 | 42.8 | 26.5 | 0.619 | 16 | B1
2 | 35.9 | 97.2 | 2.71 | 12.5 | B2
3 | 309 | 152 | 0.491 | 47.5 | B3
4 | 81.7 | 5.63 | 0.069 | 36 | B4
5 | 42 | 47.2 | 1.12 | 16.5 | B5
6 | 71.3 | 79.9 | 1.12 | 25 | B6
7 | 45.6 | 55.2 | 1.21 | 19.1 | B7
8 | 47.7 | 51.4 | 1.08 | 10.8 | B8
9 | 46.2 | 69.2 | 1.5 | 31.1 | B9
10 | 93.6 | 95.6 | 1.02 | 36.7 | B10

Source: US20140087995A1 (published 2014)
